From paper PMC139973

B1: CXCR4: N11Q/N176Q (protein)
parent chain: MEGISIYTSDNYTEEMGSGDYDSMKEPCFREENANFNKIFLPTIYSIIFLTGIVGNGLVILVMGYQKKLRSMTDKYRLHLSVADLLFVITLPFWAVDAVANWYFGNFLCKAVHVIYTVNLYSSVLILAFISLDRYLAIVHATNSQRPRKLLAEKVVYVGVWIPALLLTIPDFIFANVSEADDRYICDRFYPNDLWVVVFQFQHIMVGLILPGIVILSCYCIIISKLSHSKGHQKRKALKTTVILILAFFACWLPYYIGISIDSFILLEIIKQGCEFENTVHKWISITEALAFFHCCLNPILYAFLGAKFKTSAQHALTSVSRGSSLKILSKGKRGGHSSVSTESESSSFHSS
B2: CXCR4: N11Q (protein)
parent chain: MEGISIYTSDNYTEEMGSGDYDSMKEPCFREENANFNKIFLPTIYSIIFLTGIVGNGLVILVMGYQKKLRSMTDKYRLHLSVADLLFVITLPFWAVDAVANWYFGNFLCKAVHVIYTVNLYSSVLILAFISLDRYLAIVHATNSQRPRKLLAEKVVYVGVWIPALLLTIPDFIFANVSEADDRYICDRFYPNDLWVVVFQFQHIMVGLILPGIVILSCYCIIISKLSHSKGHQKRKALKTTVILILAFFACWLPYYIGISIDSFILLEIIKQGCEFENTVHKWISITEALAFFHCCLNPILYAFLGAKFKTSAQHALTSVSRGSSLKILSKGKRGGHSSVSTESESSSFHSS
B3: CXCR4: T13A (protein)
parent chain: MEGISIYTSDNYTEEMGSGDYDSMKEPCFREENANFNKIFLPTIYSIIFLTGIVGNGLVILVMGYQKKLRSMTDKYRLHLSVADLLFVITLPFWAVDAVANWYFGNFLCKAVHVIYTVNLYSSVLILAFISLDRYLAIVHATNSQRPRKLLAEKVVYVGVWIPALLLTIPDFIFANVSEADDRYICDRFYPNDLWVVVFQFQHIMVGLILPGIVILSCYCIIISKLSHSKGHQKRKALKTTVILILAFFACWLPYYIGISIDSFILLEIIKQGCEFENTVHKWISITEALAFFHCCLNPILYAFLGAKFKTSAQHALTSVSRGSSLKILSKGKRGGHSSVSTESESSSFHSS
B4: CXCR4: N176Q (protein)
parent chain: MEGISIYTSDNYTEEMGSGDYDSMKEPCFREENANFNKIFLPTIYSIIFLTGIVGNGLVILVMGYQKKLRSMTDKYRLHLSVADLLFVITLPFWAVDAVANWYFGNFLCKAVHVIYTVNLYSSVLILAFISLDRYLAIVHATNSQRPRKLLAEKVVYVGVWIPALLLTIPDFIFANVSEADDRYICDRFYPNDLWVVVFQFQHIMVGLILPGIVILSCYCIIISKLSHSKGHQKRKALKTTVILILAFFACWLPYYIGISIDSFILLEIIKQGCEFENTVHKWISITEALAFFHCCLNPILYAFLGAKFKTSAQHALTSVSRGSSLKILSKGKRGGHSSVSTESESSSFHSS
B5: CXCR4: S178A (protein)
parent chain: MEGISIYTSDNYTEEMGSGDYDSMKEPCFREENANFNKIFLPTIYSIIFLTGIVGNGLVILVMGYQKKLRSMTDKYRLHLSVADLLFVITLPFWAVDAVANWYFGNFLCKAVHVIYTVNLYSSVLILAFISLDRYLAIVHATNSQRPRKLLAEKVVYVGVWIPALLLTIPDFIFANVSEADDRYICDRFYPNDLWVVVFQFQHIMVGLILPGIVILSCYCIIISKLSHSKGHQKRKALKTTVILILAFFACWLPYYIGISIDSFILLEIIKQGCEFENTVHKWISITEALAFFHCCLNPILYAFLGAKFKTSAQHALTSVSRGSSLKILSKGKRGGHSSVSTESESSSFHSS

Experiments:
[1] = p24 ELISA of virus replication over 12 days; conditions: glycan lost; control: CXCR4 wt cells
[2] = flow cytometry, PE-labelled mAb 12G5, cell surface; conditions: glycan lost; control: CXCR4 wt (CXCR4+g1g2)

| Protein | other: cell permissiveness for HIV-1 (coreceptor function) [1] | expression_or_secretion, percent_of_wt [2] |
| --- | --- | --- |
| B1 | no change | – |
| B2 | no change | – |
| B3 | no change | – |
| B4 | no change | no change |
| B5 | no change | no change |
